Assay: soluble on expression in E. coli; label from the status in PepcDB or PDB records

Sequence	soluble on expression in E. coli
MNITQILSQELSATAAQITAAVELLDDGATVPFIARYRKEATGGLDDTQLRRLAERLQYLRELEERKAVVLKSIEEQGKLSDDLRAQIEAADNKTALEDLYLPYKPKRRTKAQIAREHGLQPLADVLLAEQSQDVEAAAQGYLNENVPDAKAALDGARAILMEQFAEDAELIGTLRDKLWNEAEIHAQVVEGKETEGEKFSDYFDHREPVRTMPSHRALAVLRGRNEGVLNIALKYQPDDTPITRQSEYEQIIACRFKVSDGHKWLRDTVRLTWRAKIFLSLELEALGRLKEAADTDAITVFARNLKDLLLVAPAGRLTTLGLDPGYRNGVKCAVVDDTGKLLDTVIVYLHQENNMLATLSRLIKQHGVKLIAIGNGTASRETDKIAGELVRGMPEMGLHKIVVSEAGASIYSASELAAREFPDLDVSLRGAVSIARRLQDPLAELVKIDPKSIGVGQYQHDVNQNQLAKSLDAVVEDCVNAVGVDVNTASAPLLARISGLNQTLAQNIVAYRDENGAFDSRKKLLKVPRLGEKTFEQAAGFLRINGGKEPLDASAVHPEAYPVVAKMLAQQGISAAELIGNRERVKQIKASDFTDERFGLPTILDILSELEKPGRDPRGEFQTASFAEGIHEISDLQVGMILEGVVSNVANFGAFVDIGVHQDGLVHISALSNKFVQDPREVVKAGDVVKVKVLEVDAARKRIALTMRLDDEPGGAKHKMPSENRSRERTAGRKPQRNDRAPANSAMADAFAKLKR	soluble
MGKTLFEKVWNAHVVTEVKDGPSILYIDKQLIHEVTSPQAFAGIEKRGIGVFRPERTLATPDHNVPTKGQNLPIVEDLSRFQVDKLTENCNKFGVTLYGLGHASQGVVHVVGPETGTTLPGMTIVCGDS	not soluble
MSLTAGKMNVKEKIKDIHFYRAVSDISRPIADSTHTISQIGFYIVELMTAEGVRGQGYVLSFHYSPGAMEGALRDVCSFISAGEYAVYDTVLARADWDREAEYFGNTGINNCAIAAVNLAMWDAWGHTCRQPVWKMLGANRRRIPVYGSGGWISYTDQELLEEVLDYKKRGFKAVKIKVGSGSIERDAERLAKCREALGDSVKIMMDANQGFNVPDALELARRASSMGIQWFEEPVVHTDYAGYQLLRNQCGIALAMGEREYDFEALKQLSVRNALDLWQPDIVRLGGVEAWRESAALAEAFGLPVLPHYYKDYDVPLLCTVRSPYGAESFDWIDGIIDNAMEIENGFASPREGDGWGFRFREECMTEVEGHHHHHH	soluble
PQFGLFSKYRTPNCSQYRLPGCPRHFNPVCGSDMSTYANECTLCMKIREGGHNIKIIRNGPC	soluble
MKLPAPPVLLFLCGMFSLPMALADSGIQLDTPKGGWRTRAMDGEQYIQEVNYPASSVNTPQGQADTARIRGQIKGAPKANKEPGKLIVNGVSMPLKFDEQGSFDRPYAFPNGSNSVEVRSPDGQQRQRVQFLNTGGGVTPPKLRVLLSWDSDNTDLDLHLVTPDGAHIWYGDRVAPNGATLDVDVTTGYGPEIFSMPAPLKGQYLVYVNYYGGGYRSDDDEDGGQENAVQPLTTAQVTVITEEGTPDEKSETFVVPMRAPGELTLVRSFSYPLEHHHHHH	not soluble
MSLSTMLVAEDLSAVGGISLSSALPVLTAMQYDVAALPTSLLSTHTSGYGTPAVVDLSTWLPQVFAHWTRAQLHFDQALIGYVGSVALCQQITTYLEQQTLSLLVVDPVLGDLGQLYQGFDQDYVAAMRQLIQQADVILPNTTEAALLTGAPYQVTPDLEVILPALQAQLKTGAHAVITDVQRADQIGCAWLDEAGHVQYCGARRLPGHYNGTGDTLAAVIAGLLGRGYPLAPTLARANQWLNMAVAETIAQNRTDDRQGEGHHHHHH	not soluble
MLTSEIAACCKKLRLSRNIVEMSGKIQADNHQEYLLKLLKSEIIHREKTRNAKLLRKAGFYTIKTFESFRFDEVTLPGDITPEYLKECEFVKNKTNIVMYGNVGTGKTHLSIALGVEACKRGYEVRFFRTSALVNKLAEEKRVGTLSSFLKKLNKAELLICDEWRYVPLDRIGAQLLFEVISERYENKAVIINTNIEFSRWVNIFYDEQMTGAIVDRILHHCHLLLFFGQSNRMRESRLNT	not soluble
MWSEYSLEVVDAVARNGSFSAAAQELHRVPSAVSYTVRQLEEWLAVPLFERRHRDVELTAAGAWFLKEGRSVVKKMQITRQQCQQIANGWRGQLAIAVDNIVRPERTRQMIVDFYRHFDDVELLVFQEVFNGVWDALSDGRVELAIGATRAIPVGGRYTFRDMGMLSWSCVVASHHPLALMDGPFSDDTLRNWPSLVREDTSRTLPKRITWLLDNQKRLVVPDWESSATCISAGLCIGMVPTHFAKPWLNEGKWVALELENPFPDSACCLTWQQNDMSPALTWLLEYLGDSETLNKEWLREPEETPATGD	not soluble
MDTIDLGNNESLVYGVFPNQDGTFTAMTYTKSKTFKTENGARRWLERNSGE	soluble
MLSINPNEQTEKDNYKLLTGSIIPRPVAFVTSVTKEGVLNGAPYSYFNIVAANPPLISVSVQRKAGERKDTSRNAIEKGEFVVHISDESYVAAINETAANLPPNESEIELAKLTPIESEVISVPGVKEANIRMECVLERAIPLGGTEDSPACDLLIGRVVRFHVAEHLYEKGRIHAEGLKPISRLAGHNYAKLGEQFELVRPI	soluble
SLQWECWPSLPCWRCFAASGRITLSIKRFTQNSRRHDMKITKINAIPLSYRLPEGKTVTMGVGSTIKRDAIIIRVETSEGITGYGEAHPGRSPGAITSLIHNTIAPMLIGMKATDCVGAWQRVHRMQLSSHGLGAGAALAISGIDMALWDIRGKAANMPLYELLGGSKRRIPAYAGGIALGYQPKESLAEEAQEYIARGYKALKLRIGDAARVDIERVRHVRKVLGDEVDILTDANTAYTMADARRVLPVLAEIQAGWLEEPFACNDFASYREVAKITPLVPIAAGENHYTRFEFGQMLDAGAVQVWQPDLSKCGGITEGIRIAAMASAYRIPINAHSSATGLNHAATIHFLAATENAGYFEACVSKFNPFRDMFGTSFEIGADGCVEPPDAPGLGIEVDESIFEKYPAVDGPGYVVKF	not soluble
MNNNDLVAKLWKLCDNLRDGGVSYQNYVNELASLLFLKMCKETGQEADYLPEGYRWDDLKSRIGQDQMQFYRNLLVQLGSDEKKLVQAVFHNVSTTIEQPKQLTELVSYMDALDWYNGNHGKSRDDFGDMYEGLLQKNANETKSGAGQYFTPRPLIKTIIHLLKPQPREVVQDPAAGTAGFLIEADRYVKSQTNDLDDLDGDTQDFQIHRAFIGLELVPGTRRLALMNCLLHDIEGNLDHGGAIRLGNTLGSDGENLPKAHIVATNPPFGSAAGTNITRTFVHPTSNKQLCFMQHIIETLHPGGRAAVVVPDNVLFEGGKGTDIRRDLMDKCHLHTILRLPTGIFYAQGVKTNVLFFTKGTVTNPHQDKNCTDDVWVYDLRTNMPSFGKRTPFTEQHLQPFETVYGEDPHGLSPREEGEWSFNAEESEVADSEENKNTDQHQATSRWRKFSREWIRSAKSDSLDISWLKDKDSIDADSLPEPDVLAAEAMGELVQALGELDALMRELGAGDEADAQRQLLNEAFGEVKA	not soluble
MGSDKIHHHHHHAQTPQDSVRFIGYLPVRHTDPTKWITRYQSEIDRYQTENQMLKDTSCDVLFLGSSSINLWDNIYRDMAPLKILRRSYGGAALRDMLYNYDVIARGYHPRSIVIYVENDLAGTPEDLTVGETFDFFRLLTNRLQRDYPDIPIFILSYKPSLARKEMIPKHEIINALLQEYASKRGGLTYIDVASCLYDNNGKLRKDIFKQDGLHMNQNGYDLWTAILKPKILESIR	not soluble
MWGKKDAGTELTNYQTLATNTIGMMKGVDGYAFTSGAKMTDTLIQAGAAKGMTVSGDPASGSATLWNSWGGQIVVAPDTAGGTGFNNGFTITTNKVPQSACVSISTGMSRSGGTSGIKINGNNHTDAKVTAEIASSECTADNGRTGTNTLVFNYNG	soluble
MSIEVPISIPKTLIIIPAYNEEEAIADTLTRLLELKQHFTALSICVINDGSQDKTAQIVKNFPVHLINLPYNLGIGSAVQTGYKYAYENGYDIAIQFDADGQHNPDDLYKIIQPIAEGQCDMVLGSRFTEKTAYKGSISRRIGIFYFTALLKVLTKQTFMDPTSGYRAINREVITIFAHNYPKDYPEPEVLIHLKKKKLRINEISVNMQERQGGQSSITPLKSAYYMIKVSLAILMQKIVKGLEHHHHHH	not soluble
SHLHPLHKNTTGYDLRHLFIGSEGTLGIITAATLKLFANPLDKATAWVGIPDIESAVRLLTETQAHFAERLCSFELIGRFAAELSSEFSKLPLPTHSEWHILLELTDSLPDSNLDDRLVEFLYKKGFTDSVLAQSEQERIHMWALRENISASQRKLGTSIKHDIAVPIGRVADFVRRCAKDLEQNFKGIQIVCFGHLGDGSLHYNTFLPEILSNEVYRYENDINSTVYRNVLACNGTIAAEHGIGIIKKQWLDKVRTPAEIALMKSIKQHLDPYNIMNPGKLLP	not soluble
MEEKKPVNLVLPEVENAIFIEGYPGVGLVGHIAANFLAKELDMDLIGYVDSLFIPPMSLILEGRPTPPLRFYGKNNIIIAIADIFLPPTLVNEIAKEIVNYLKKVNAEKVISLAGMGIGFFKDTFEVWGIGGSEEENKELESLGVKILKYGSITGMSGKLLWEASRAGLKSYVLLGETFGDRPDPRAAANVVEVLNKMLGLNVSVEPLLKEAEMIEEQLRRMHEQMEEARRKMERQYETMYL	not soluble
MGHHHHHHSHMPYLVIEHLEDISEWLLLEYKHVAQWWGDKLIFTNVKPKERKILAEIGSVVTESITKLPVDRSKVIVLDLQAKEELKPEDISEDTIIVVGGILGDAIPRGRTRKLITSKMEGVKVRHIGRPQFSIDGASIIAKLISEGKRLEEIEYEENPTIKLDEFSEITFHYAVPKLNGKLLLTPGLIELQKKELGYLEEDEDDGLIEFFEGKGEL	soluble
MKIIYCITKADNGGAQTHLIQLANHFCVHNDVYVIVGNHGPMIEQLDARVNVIIIEHLVGPIDFKQDILAVKVLAQLFSKIKPDVIHLHSSKAGTVGRIAKFISKSKDTRIVFTAHGWAFTEGVKPAKKFLYLVIEKLMSLITDSIICVSDFDKQLALKYRFNRLKLTTIHNGIADVPAVKQTLKSQSHNNIGEVVGMLPNKQDLQINAPTKHQFVMIARFAYPKLPQNLIAAIEILKLHNSNHAHFTFIGDGPTLNDCQQQVVQAGLENDVTFLGNVINASHLLSQYDTFILISKHEGLPISIIEAMATGLPVIASHVGGISELVADNGICMMNNQPETIAKVLEKYLIDSDYIKMSNQSRKRYLECFTEEKMIKEVEDVYNGKSTQ	not soluble
MTSSNKILLVFLLFFCIQDVASENGLDVSALSGKSKKFFFDMTKQVMGVPSLKPENLAAQAFFRSFLDKYTKLDDKVKNDMTQHVPKATKLFDAAAKKYNIDPSSAFKMLSTFFETFKKGASSEMASKGLQMAGKLLGGKGSGGGGGLLGFLGTRR	not soluble
MGSDKIHHHHHHMYLSQLKAGGVICRQGETARLVPGFSSTYDLAKAAIAAKVSITDLIAKQGAGDTVDLAALAASGKLDCPVRHPDAAHMFLTGTGLTHTGSASARDNMHADTAGMSDSMKMFRMGLEGGKPKAGEWGVQPEWFYKGTGVNAIAPGDGLESPSFALDGGEEPEIAGFYVIDNDGTPVRLGFSLANEFSDHVTEKINYLYLAHSKLRPASFGPELLVGDLPANVTGASKILRDGKTVWEKPFLSGEDNMSHTIANLEYHHFKYGLFCQPGDLHVHMFGTATLSFADGFKTVPGDVFEVSASQFGLPLQNPLVVAAETPFAVKTL	not soluble
